Experimental data reported in PMC12222027, “In situ structure of a bacterial flagellar motor at subnanometre resolution reveals adaptations for increased torque” (Nature Microbiology, 2025).

B1: FliL (C. jejuni 81-176, endogenous) (natural protein)
chain: MDEELENEETKKKKGGSLVIIIVILLFVLLLSIMGVIAWLISSSSSDESEVKEAPKEEAKADKPKVSAPTQRGSDFANIGPMYPLDPFTLNLLSDSGSRYVKCTIELEQNSELLKPELDKKVPVIRDIIIRTLTAKTFEEVSTQKGKERLKDELVGKINEILTDGFIKNVYFTDFVVS
notes: FliL, flagellar protein forming an arc of four copies around the MotB linker in each asymmetric unit; source: endogenous, C. jejuni 81-176: ΔflhG ΔflaAB minicells imaged in situ; lysates of formaldehyde-crosslinked ΔpflA or ΔpflB cells carrying the PflA-FLAG or PflB-FLAG plasmid

Key:
[1] = molecular target: FlgP (basal disk protein, C. jejuni 81-176, in the motor in situ) (C. jejuni 81-176 (endogenous in minicells)); test: cryo-EM structure; in situ single-particle analysis of motors in C. jejuni ΔflhG ΔflaAB minicells; C17 focused refinement of the periplasmic scaffold and first basal disk ring (7.9 Å); AlphaFold2 models docked or flexibly fitted into the map
[2] = molecular target: the molecule itself; test: as above

Molecule	stoichiometry N [1]	stoichiometry N [2]
FlgP (basal disk protein, C. jejuni 81-176, in the motor in situ) (natural protein)	51	–
B1	–	4
